# Data reported in the nanobody polyreactivity screen of Harvey et al. (2022).
# Test: yeast display, Sf9 membrane polyspecificity reagent, FACS + sequencing; frameworks hold sequencing errors
# Summary of the method: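 Synthetic nanobody libraries on Saccharomyces cerevisiae BJ5465 were galactose-induced for 36–48 hours, stained 1 hour at 4 °C with 10% biotinylated, detergent-solubilized Sf9 membrane reagent and enriched on streptavidin microbeads. FACS then separated cells into low and high (top ~1%) gates by anti-HA (expression) and streptavidin (reagent binding) fluorescence. Genes were colony-PCR amplified, MiSeq 2 × 250 sequenced and CDR-length filtered. A clone's polyreactivity label is that of its gate of origin.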
row,Sequence,polyreactivity (PSR sort gate)
1,QVQIVESGGGLVQAGGSLRLTCAASGSIFPDYAMGWYRQAPGKERELVASISWDGGSTYYADSVKGRFTISRDNAKNTVYLQMNSLKPEDTAVYYCATELLVGGGFTVDYWGQGTQVTVSS,low polyreactivity
2,QVQLVESGGGLVQAGGSLRLSCAASGSTFGVNAMGWYRQAPGKERELVAAIRWSDGSTYYADSVKGRFTISRDNAKNTVYLQMNSLKPEDTAVYYCNTDLTVYFPVEYWGQGTQVTVSS,low polyreactivity
3,QVQLQESDGGLVQAGGSLRLSCAASGSISPQYYMGWYRQAPGKEREFVAISKGTTTYYADSVKGRLTISRVNAKNTVYLQMNSLKPEDTAVYCCAAGRWLQNVHAYWDQGTQVTVSS,low polyreactivity
4,QVQLVESGGGLVQAGGSLRLSCAASGITFVRNALGWYRQAPGKEREFVAAISWSGGSTYYADSVKGRFTISRDNAKNTVYLQMNSLKPEDTAVYYCNAGSSYLSRFPLDYWGQGTQVTVSS,high polyreactivity
5,QVKLVESGGGLVQAGGSLRLSCAASGFTVYGYSMGWYRQEPGKERELVAAITSVGDTNYADSVKGRFTISRDNAKNNVYLQINSLKPEDTAVYYCKADPVYYFYWWTGDYWGQGTQETVSS,low polyreactivity
6,QVQLVESGGGLVQAGGSLRLSCAASGGIFAPYAMGWYRQAPGKERELVADITSEGGSTYYADSVKGRFTISRDIEKNTVYLQMNSLKPEDTAVYYCAAEQRYCWWGHPGDYWGKGTQVTVSS,low polyreactivity
7,QVQLVESGGGLVQAGGSLRLSCAASGRTFQFYAMGWYRQAPGKEREWVAAISRSSGSTTYADSVKGRFTISRDNAKNTVYLQMNSLKPEDTAVFYCDADARYRSYSLLVRPARYYYWGQGTQVTVAS,high polyreactivity
8,QVQLVESGGGLVQAGGSLRLSCAASGSIFRKNAMGWYRQAPGKERELVAAISSGGGGTYYADSVKGRFTISRDNAKNTVYLQMNSLKPEDTAVYYCNKREGKGGNTKYDYWGLGTQVTVSS,low polyreactivity
9,QVQLVESGGGIVQAGGSLRLSCDASGRIFTGNVMGWYRQAPGKERELVAAISRRGGGTYYADSVKGRFTISRDNAKNTVYLQMNSLIPEDTALYYCDAQYRSQGQPKGCVLYYYWVQGTQVTVSS,high polyreactivity
10,QVQLVESGGGLVQAGGSLRLSCAASGFTFWYYAMGWYRQAPGKERELVAAITEDGDSTYYADSVKGRFTISRDNAKNTVYLQMNSLKPEDTAVYYCNTDLTFNGTSGDYDYWGQGSQVTVSS,low polyreactivity
11,QVQLVESGGGLVQAGGSLRLSCAASGFIVNVYAMVWYRQAPGKERELVAAISTSGSNTYYADSVKGRFTISLDNAKNTVYLQMNSLKPEDTAVYYCNAVRDRVRWHYYAVYYWGQGTQVTVSS,high polyreactivity
12,QVQHVETGGGLVQAGGSLRLSCAASGFIFTRYVMGWSRQAPGKERELVAAISRIGASTYYADSVKGRFSISRDNAKNPVYLQMNSLKPEDTAVYYCNVVSGGYFEYEYCGQGTQVTVSS,high polyreactivity
13,QVQLVESGGGLVQAGGSLRLSCAASGSTLRGYTMGWYRPAPGKERELVAAISWSGASTYYADSVKGRFTISRDSAKNTVYLQMNSLKPEVTAVYYCAVRYWAPYDEYGYWGQGTQVTVSS,high polyreactivity
14,QVQLVESGGGLVQAGGSLRLSCAASGSTFTQYAMGWYRQAPGKERELVATISRRGTRTYYADSVKGRFTISRDNAKNTVYLQMNSLKPEDTAVYYCAADNGPYRTIGYDSWGQGTQVTVSS,high polyreactivity
15,QVQLQERGGGLVQAGGRLRLSCMASGSILGDRMSWYRQAPGKEHELVATIYDGGITYYADSMKVRFTISRDNANNTVDLQMKSQRPEDTAVYFCGASFEGYRYHVFCGQGTQVTVSS,low polyreactivity
16,QVQLVESGGGLVQAGGSLRLSCAASGSIFGANAMGWYRQAPGKERELVAAISSGDSTYADSVKGRFTISRDNAKNTVYLQMNSLKPEDTAVYYCATCRYGGQGYPFYYWGQGTQVTVSS,low polyreactivity
17,QVQLVESGGGLVQAGGSLRLSCAASGFIFHIYAMGWYRQAPGKERELVAVITSGGSTYYADSVKGRFTISRDNAKNTVYLQMNSLKPEDTAVYYCAARYRRSWLEYDYWGQGTQVTVSS,high polyreactivity
18,QVQLVESGGGLVQAGGSLRLSCAASGRIFDFYAMGWYSQAPGKERELVAAIASSVGNTYYADSVTGRFTISRDNAKNTVSLQMISLKPEDTAVYYCADYSYVRSSYEVEYDYWGQGTQVTVSS,low polyreactivity
19,QVQLVESGGGLVQAGGSLRLSCAASGFTFSIYAMGWYRQAPGKERELVAAISGRGSSTYYADSVKGRFTISRDNAKNTVYLQMNSLKPEDTAVYYCKKFHHAYFSSVYSYAGGYWGQGTQVTVSS,high polyreactivity
20,QVQLVESGGGLVQAGGSLRLSCAASGSIFIVNAMGWNRQAPGKERELVAAISWSGGSTYYADSVKGRFTISRDNAKNTVYLQMNSLKPEDTAVYYCAAKYTLPFRDVKYYSWGQGTQVTVSS,high polyreactivity
21,QVQLVESGGGLVQAGGSLRLSCAASGITFSVYAMGWYRQAPGKEWELVASISSGGTSTYYADSVKGRFTISRDNAKNTVYLQMNSLKPEDTAVYYCAAYSYYTGDQYSYDYWGQGTQVTVSS,low polyreactivity
22,QVQLVESGGGLVQAGGSLRLSCAASGRIFTHNAMGWYRQAPGKERELVAAISYSGVSTYYADSVKGRFTISRDNAKNTVYLQMNSLKPEDTAVYYCAARSRSWRQRYGDFDYWGQGTQVTVSS,low polyreactivity

row,Sequence,polyreactivity (PSR sort gate)
1,LVQLVESGGGLGQAGGSLRLSCAASGFTFTIYAMGWYRQAPGKERELVAAISSSGYSTYYADSVKGRFTISRDNAKNTVYFQMISLKPEDTAVYYCAARGYYRSHLGFLYDYWGQGTQVTVSS,high polyreactivity
2,QVQLVESGGGLVQAGGSLRLSCAASGSTFVYYAMGWYRQAPGKEREFVAGITRRTGSTYYADSVKGRFTISRDNAKNTVYLQMNSLKPEDTAVYYCAKRDARATPFGYWGQGTQVTVSS,high polyreactivity
3,QVQLVESGGGLVQAGGSLRLSCAASGRTLTIYAMGWYRPAPGKERELVAAINWSGGGTYYADSVKGRFTISRDNAKNTVYLQMNRLKPEDTAVYYCAAGRSFRGSYWYEYWGQGTQVTVSS,high polyreactivity
4,QVQLVESGGGLVQAGGSLRLSCAASGYTFRNNAMGWYRQAPGKEREFVAAISRSGARTYYADSVKGRFTISRDNAKNTVYLQMNSLKPEDTAVYYCAARESFEYDSWGQGTQVTVSS,high polyreactivity
5,QVQLVQSGGGLVQAGGSLRLSCAASGSIFGYYAMGWYRQAPGKERELVAVITSVATTNYADSVKGRFTISRDNAKNTVYLQMNSLKPEDTAVYYCAARPQVKRGRYGYWGQGTQVTVSS,low polyreactivity
6,QVQLQESGGVLVQAGGSLRLSCAASGSIYDDTYMGWYRQAPGKERELVATIDSGSTTNYADSVKGRITICRDNAKNSVDLQMNTLKPEDTAVYYCAAADSHIDYFDYWGQGTQVTVSS,low polyreactivity
7,QVQLVESGGGLVQAGGSLRLSCAASGRTFYPYAMGWYRQAPRKERELVAAISRSGGSTYADSVKGRFTISRDNAKNTVYLQMNSLKREDTAVYYCATRRKTYLSFNYDYWGQGTQVTVSS,low polyreactivity
8,QVQLVESGGGLVQSGGSLRLSCAASGSIFDYYAMGWYRQAPGKERELVASINSSGTGTYYADSVKGRFTFSRDNAKNTVSLQVNSMKPEDTAVYYCATRQAVGYSSGRGYGYWGQGTQETVSS,low polyreactivity
9,QVQLVESVGGLVQEGGSLRLSSAATGYTFDVYAMGWSRQAPGKERELVAAISTRGTRTYYADSEKGRFTISRDNAKNTVYLQMNSLKPEDTAVYYCAAYVYDGETESRFDYWGQGTQVTVSS,high polyreactivity
10,QVQLVESGGGLVQAGGSLRLICAASGRIFPSYTMGWYRQAPGKERELVAGITKSGSSTYYADSVKGRFTISRDNAKNTVYLQMNSLKPEDTAVYYCAAVYGNPSYRYGYWGQGTQVTVSS,high polyreactivity
11,QVQLVESGGGLVQAGGSLRLSCAASGSTFVPYAMGWYRQAPGKERELVAGITFSGGSTYYADSVKGRFTIPRDNAKNTVYLQMNSLKPEDTAVYYCARAGGYPLSRYGYWGQGTQVTVSS,high polyreactivity
12,QVQLVESGGGLVQAGGSLRLSCAASGIIIVRYAMGWYRQAPGKERELVAAISWSGGRTYYADSVKGRFTISRDNAKNTVYFQINSLKPEDTAVYYCAAAPLYYHRRGYYYWGQGTQVTVSS,high polyreactivity
13,QVQLVESGGGLVQAGGSLRLSCAASGRTFTLYTMGWYRQAPGKERELVAAIRYSGGSTYYADSVKGRFTISRDNAKNTVYLHMNSLKPEDTAVYYCAARSYYYGFLYRYDYWGQGTQVTVSS,low polyreactivity
14,QVQLVESGGGLVQAGGSLRLSCAASGSIIKAYAMGWYREAAGKERELVATITRSGVSTYYADSVNGRFTISRDNAKNTVYLQMKSLKPEDTAVYYCNRTGYVRFYITQQRGYFRYDYWGQGTQVTVSS,low polyreactivity
15,QVQLVESGGGLVQAGGSLRLSSAASGSTVPRYAMGWDRQAPGKERAFVAVIWSGGSTYYAVSVKGRFTISRDNAKNTVYLQMNSLKPEDTAVYYCAAEYHTLSKYSGYATHDYWGQGTQVTVSS,low polyreactivity
16,QDQLVESRGGIVQAGGSLRLSCAASGSTFRLYAMGWYRQAPGKERELVAAISSGGTTKYADSVKGRFTNSRDNAKNTVYLQMNSLTPEDTAVYYCNAVYHWGNPGEYATLPRYDYWGQGTQVNVSS,high polyreactivity
17,QVQLVDSGGGLVQAGGSLRLSCAASGSIFRYYAMGWYRQAPGKEREFVAAITYSGGSTHYADSVKGRFTISRDNEKNTVYLQMNSLKPEDTAVYYCAADYYWRVHYGYWGLGTQVTVSS,high polyreactivity
18,QVQLVESGGGLVQAGGSLRLSCAASGFIFRWNAMGWYRQAPGKVRELVAAISNSDGSTYYADSVKGRFTISRDNAKNTVYVQMNSLKPEDTAVYYCYKLYRGGWYDYWGQGTQVTVSS,low polyreactivity
19,QVHLVESGGGLVQAGGSLRLSSADTGYTFVNYARGWNRQAPGKERELVAAISDRGGSMYYADAVKGRFTISRDNAKNTVDLQMNSLKPEETAVYYCAAQHTGKYTGTRYFYWGQGTQVTVSS,high polyreactivity
20,QVQLEESGGGLVQAGGSLRLSFAASGRIFRRYAMGWYRQAPVKERELVAAISSRGGRTYYADSVKGRFTISRDNAKNTVYLQMNSLKPDDTAVYYCAAYYFFTDTYGPYEYWGQGTQVTVSS,high polyreactivity
21,QVQLVESGGGLVQAGGSLRLSCAASGFTFHNNVMGWYRQAPGKERELVATISKSGGSTYYADSVKGRFTISRDNAKNTVYLQMNSLKPEDTAVYYCAALYPYQYVRGGYWGQGTQVTVSS,high polyreactivity
